Data reported in the supplement of paper PMC10567573.

B1: CASP6 (parent)
chain: TCADRDNLTRRFSDLGFEVKCFND
B2: KCNA4 (parent)
chain: YQLGEEALLKFREDEGFVREEEDR

Variants of: B1
Experiment: protein stability index of a GFP-peptide fusion (GPS, HEK-293T) (PSI 1-6); higher = more stable
Conditions: c terminus: a fixed tail appended
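Note: lentivirally expressed fusions sorted by FACS into six bins by GFP to DsRed ratio, PSI derived from sequencing read proportions per bin multiplied by bin number.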

Protein stability index of substitutions, site by site:
C2: M 3.38, R 3.74, N 4.32, S 3.88, G 3.47, I 3.35, W 2.36, D 3.81, Q 3.43, E 4.84, K 3.51, L 3.25, A 4.04, F 3.16, H 3.71, Y 3.23, V 3.93, P 4.04, T 3.54
R5: C 2.65, A 4.37, E 3.58, D 4.21
A3: N 3.38, S 3.64, R 2.97, T 3.63, F 2.52, K 3.7, G 3.38, E 3.65, L 3.14, Q 4.01, M 3.45, Y 2.9, I 3.21, C 2.84, D 3.96, W 3.21, V 3.52, H 2.98, P 4.03
D4: S 3.02, F 2.78, E 3.74, Y 2.44, M 2.08, V 3.05, R 2.95, C 1.58, N 3.17, W 3.54, G 3.28, I 2.24, P 2.75, H 2.96, L 2.21, K 3.37, T 2.64, A 2.61, Q 3.36
T1: K 3.07, E 3.74, V 2.92, D 4.37, A 3.73, S 3.28, H 3.37, Y 2.15, L 3.1, I 2.73, C 2.88, F 2.18, N 3.03, M 3.58, R 3.06, W 2.32, G 3.2, Q 4.05, P 3.67

Variants of: B2
Experiment: as above
Conditions: c terminus: a fixed tail appended

Protein stability index: each site, then its substitutions
D23: I 3.88, T 4.11, H 3.94, C 4.48, K 4.45, N 4.05, R 4.39, M 3.76, A 4.28, Q 4.04, F 4.14, W 3.51, V 3.7, P 3.82, Y 4.46, G 3.88, L 3.97, E 4.75, S 4.62
E20: M 4.06, L 3.9, V 4.14, S 4.45, N 4.61, Q 4.44, P 4.3, Y 3.71, T 4.56, W 3.56, R 4.1
E22: I 4.03, H 4.37, T 4.11, L 3.99, A 4.75, P 4.16, S 4.02, M 4.92, K 3.99, Y 3.58, G 4.23, V 4.13, R 3.95, F 3.82, Q 4.25, D 4.65, W 4.01, N 3.85, C 4.32
E21: A 4.45, I 4.07, F 4.06, S 4.71, W 3.5, M 4.21, H 4.18, C 3.71, Q 4.21, D 4.4, T 4.38, K 4.08, V 4.29, L 3.07, P 4.65, G 4.43, N 4, Y 4, R 3.05
R24: C 4.21, D 4.71, G 4.79, S 4.65, V 4.73, Q 4.71, H 4.83, I 4.6, T 4.71, F 4.27, Y 4.42, M 4.88, N 4.72, P 5.16, A 4.69, L 4.54, W 4.53, E 5.1, K 4.66
